Measurements: the supplement of paper PMC9112550, “Optimization of the antimicrobial peptide Bac7 by deep mutational scanning” (BMC Biology, 2022)

system: Escherichia coli TOP10; test: shrunken log2 fold change of peptide-encoding DNA abundance (4.5 h post-induction vs induction); higher = less antimicrobial activity (less host growth inhibition); conditions: time post-induction: 4.5 h; library: site-saturation at positions 5, 18, 19, 20
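Also: peptides expressed intracellularly from a pBAD plasmid library in pooled LB shake-flask culture, induced with 0.3% L-arabinose, DNA abundance read by NGS, three biological replicates, DESeq2 with apeglm shrinkage.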

| Sequence | shrunken log2 fold change |
| --- | --- |
| RRIRRRPPRLPRPRPRPCGCPRP | 0.0953 |
| RRIRCRPPRLPRPRPRPLKHPRP | -0.584 |
| RRIRGRPPRLPRPRPRPIYGPRP | -0.141 |
| RRIRPRPPRLPRPRPRPGECPRP | 0.739 |
| RRIRMRPPRLPRPRPRPLFKPRP | -0.0689 |
| RRIRKRPPRLPRPRPRPQQAPRP | -0.0621 |
| RRIRRRPPRLPRPRPRPQMQPRP | -0.205 |
| RRIRDRPPRLPRPRPRPLGGPRP | 0.461 |
| RRIRKRPPRLPRPRPRPYLKPRP | -0.525 |
| RRIRPRPPRLPRPRPRPGDRPRP | 0.0494 |
| RRIRSRPPRLPRPRPRPKKYPRP | -0.3 |
| RRIRGRPPRLPRPRPRPHMFPRP | 0.445 |
| RRIRMRPPRLPRPRPRPKPPPRP | 1.64 |
| RRIRYRPPRLPRPRPRPNACPRP | -0.047 |
| RRIRWRPPRLPRPRPRPDTQPRP | -0.0933 |
| RRIRARPPRLPRPRPRPMGAPRP | 0.572 |
| RRIRGRPPRLPRPRPRPCDEPRP | 0.566 |
| RRIRARPPRLPRPRPRPKDTPRP | 0.293 |
| RRIRGRPPRLPRPRPRPPWEPRP | 0.528 |
| RRIRARPPRLPRPRPRPCVCPRP | 0.301 |
| RRIRHRPPRLPRPRPRPDVAPRP | -0.00146 |
| RRIRFRPPRLPRPRPRPPMPPRP | 0.568 |
| RRIRPRPPRLPRPRPRPHLHPRP | -0.0768 |
| RRIRFRPPRLPRPRPRPDALPRP | -0.0978 |
| RRIRERPPRLPRPRPRPKEQPRP | 0.0401 |

| Sequence | shrunken log2 fold change |
| --- | --- |
| RRIRYRPPRLPRPRPRPTRSPRP | -0.581 |
| RRIRMRPPRLPRPRPRPQGHPRP | 0.0616 |
| RRIRSRPPRLPRPRPRPAPKPRP | 0.569 |
| RRIRLRPPRLPRPRPRPKGGPRP | 0.01 |
| RRIRMRPPRLPRPRPRPLEIPRP | 0.103 |
| RRIRMRPPRLPRPRPRPEHGPRP | 0.406 |
| RRIRKRPPRLPRPRPRPQDVPRP | -0.0018 |
| RRIRIRPPRLPRPRPRPCAQPRP | -0.485 |
| RRIRFRPPRLPRPRPRPHIVPRP | -0.0839 |
| RRIRHRPPRLPRPRPRPQLHPRP | -0.169 |
| RRIRCRPPRLPRPRPRPRELPRP | 0.506 |
| RRIRKRPPRLPRPRPRPKFTPRP | 0.355 |
| RRIRNRPPRLPRPRPRPAYYPRP | -0.0433 |
| RRIRRRPPRLPRPRPRPKTRPRP | 2.44 |
| RRIRCRPPRLPRPRPRPANVPRP | -0.0934 |
| RRIRNRPPRLPRPRPRPFARPRP | -0.113 |
| RRIRERPPRLPRPRPRPKQKPRP | -0.0338 |
| RRIRRRPPRLPRPRPRPVVLPRP | -0.0732 |
| RRIRKRPPRLPRPRPRPYFKPRP | -0.382 |
| RRIRSRPPRLPRPRPRPHIAPRP | -0.255 |
| RRIRERPPRLPRPRPRPWSHPRP | -0.168 |
| RRIRHRPPRLPRPRPRPVGLPRP | 0.119 |
| RRIRDRPPRLPRPRPRPRSPPRP | -0.183 |
| RRIRIRPPRLPRPRPRPYDYPRP | -0.0343 |
| RRIRWRPPRLPRPRPRPYLGPRP | -0.616 |

| Sequence | shrunken log2 fold change |
| --- | --- |
| RRIRFRPPRLPRPRPRPYIFPRP | -0.829 |
| RRIRPRPPRLPRPRPRPCVYPRP | -0.22 |
| RRIRFRPPRLPRPRPRPTCQPRP | -0.0887 |
| RRIRNRPPRLPRPRPRPRDHPRP | -0.219 |
| RRIRFRPPRLPRPRPRPFGNPRP | 0.0348 |
| RRIRTRPPRLPRPRPRPCFKPRP | -0.362 |
| RRIRERPPRLPRPRPRPWYHPRP | -0.588 |
| RRIRLRPPRLPRPRPRPVGFPRP | 0.212 |
| RRIRNRPPRLPRPRPRPRENPRP | -0.0577 |
| RRIRERPPRLPRPRPRPDMNPRP | -0.00248 |
| RRIRTRPPRLPRPRPRPQCRPRP | -0.259 |
| RRIRKRPPRLPRPRPRPRFQPRP | -0.00313 |
| RRIRHRPPRLPRPRPRPQKGPRP | -0.0617 |
| RRIRYRPPRLPRPRPRPVRDPRP | -0.123 |
| RRIRPRPPRLPRPRPRPVWHPRP | 0.186 |
| RRIRTRPPRLPRPRPRPHEHPRP | -0.0451 |
| RRIRRRPPRLPRPRPRPTTAPRP | 0.541 |
| RRIRPRPPRLPRPRPRPDMMPRP | -0.0321 |
| RRIRKRPPRLPRPRPRPSWRPRP | 0.211 |
| RRIRHRPPRLPRPRPRPCMAPRP | -0.213 |
| RRIRVRPPRLPRPRPRPILGPRP | 0.0313 |
| RRIRTRPPRLPRPRPRPRFMPRP | -0.265 |
| RRIRQRPPRLPRPRPRPHITPRP | -1.1 |
| RRIRTRPPRLPRPRPRPACAPRP | 0.441 |
| RRIRERPPRLPRPRPRPQVGPRP | -0.0112 |

| Sequence | shrunken log2 fold change |
| --- | --- |
| RRIRDRPPRLPRPRPRPCLKPRP | -0.000218 |
| RRIRRRPPRLPRPRPRPQWYPRP | -0.258 |
| RRIRCRPPRLPRPRPRPPWHPRP | 0.0193 |
| RRIRDRPPRLPRPRPRPGYLPRP | -0.394 |
| RRIRGRPPRLPRPRPRPGPDPRP | 0.62 |
| RRIRLRPPRLPRPRPRPSAVPRP | -0.16 |
| RRIRFRPPRLPRPRPRPNLAPRP | -0.0885 |
| RRIRYRPPRLPRPRPRPFKTPRP | -0.398 |
| RRIRDRPPRLPRPRPRPYNMPRP | -0.0758 |
| RRIRDRPPRLPRPRPRPCQPPRP | -0.144 |
| RRIRRRPPRLPRPRPRPACSPRP | 0.377 |
| RRIRHRPPRLPRPRPRPQVDPRP | -0.0221 |
| RRIRSRPPRLPRPRPRPANLPRP | -0.0937 |
| RRIRVRPPRLPRPRPRPDPDPRP | -0.0209 |
| RRIRVRPPRLPRPRPRPCSGPRP | -0.0235 |
| RRIRTRPPRLPRPRPRPHPLPRP | -0.503 |
| RRIRARPPRLPRPRPRPQTVPRP | 0.129 |
| RRIRMRPPRLPRPRPRPILNPRP | -0.248 |
| RRIRERPPRLPRPRPRPLQCPRP | -0.254 |
| RRIRQRPPRLPRPRPRPLKHPRP | -0.589 |
| RRIRFRPPRLPRPRPRPQCGPRP | -0.0775 |
| RRIRYRPPRLPRPRPRPRTEPRP | -0.188 |
| RRIRWRPPRLPRPRPRPVVDPRP | 0.0903 |
| RRIRDRPPRLPRPRPRPTNLPRP | -0.182 |
| RRIRPRPPRLPRPRPRPCKQPRP | -0.0806 |

| Sequence | shrunken log2 fold change |
| --- | --- |
| RRIRQRPPRLPRPRPRPQQVPRP | -0.0545 |
| RRIRRRPPRLPRPRPRPKKKPRP | -0.00706 |
| RRIRMRPPRLPRPRPRPDNAPRP | -0.267 |
| RRIRNRPPRLPRPRPRPMFFPRP | -0.189 |
| RRIRPRPPRLPRPRPRPSYVPRP | -0.127 |
| RRIRPRPPRLPRPRPRPTDGPRP | -0.0563 |
| RRIRMRPPRLPRPRPRPSELPRP | 0.12 |
| RRIRMRPPRLPRPRPRPYKPPRP | 0.0559 |
| RRIRFRPPRLPRPRPRPTIVPRP | 0.0438 |
| RRIRCRPPRLPRPRPRPVWDPRP | -0.107 |
| RRIRMRPPRLPRPRPRPWRLPRP | -0.0743 |
| RRIRVRPPRLPRPRPRPTQSPRP | 0.332 |
| RRIRLRPPRLPRPRPRPSPHPRP | -0.242 |
| RRIRFRPPRLPRPRPRPWMCPRP | -0.0872 |
| RRIRLRPPRLPRPRPRPWMSPRP | -0.55 |
| RRIRDRPPRLPRPRPRPYQHPRP | -0.221 |
| RRIRNRPPRLPRPRPRPDKCPRP | -0.116 |
| RRIRARPPRLPRPRPRPQRWPRP | 0.172 |
| RRIRARPPRLPRPRPRPGFCPRP | 0.572 |
| RRIRVRPPRLPRPRPRPQGSPRP | -0.205 |
| RRIRGRPPRLPRPRPRPRNNPRP | 0.346 |
| RRIRHRPPRLPRPRPRPVKGPRP | -0.079 |
| RRIRVRPPRLPRPRPRPIQWPRP | 0.138 |
| RRIRHRPPRLPRPRPRPPVMPRP | -0.0747 |
| RRIRIRPPRLPRPRPRPRATPRP | 0.728 |

| Sequence | shrunken log2 fold change |
| --- | --- |
| RRIRLRPPRLPRPRPRPPLPPRP | 0.502 |
| RRIRMRPPRLPRPRPRPKLFPRP | 0.244 |
| RRIRKRPPRLPRPRPRPEKPPRP | 0.0899 |
| RRIRFRPPRLPRPRPRPSLFPRP | -0.291 |
| RRIRSRPPRLPRPRPRPSWAPRP | -0.0813 |
| RRIRARPPRLPRPRPRPADHPRP | 0.0196 |
| RRIRVRPPRLPRPRPRPENEPRP | -0.0631 |
| RRIRDRPPRLPRPRPRPGHCPRP | -0.0141 |
| RRIRFRPPRLPRPRPRPIWSPRP | 0.0199 |
| RRIRFRPPRLPRPRPRPPFDPRP | 0.188 |
| RRIRTRPPRLPRPRPRPAHKPRP | 0.0105 |
| RRIRLRPPRLPRPRPRPFSSPRP | -0.000451 |
| RRIRARPPRLPRPRPRPLKRPRP | 0.37 |
| RRIRHRPPRLPRPRPRPEKPPRP | -0.01 |
| RRIRWRPPRLPRPRPRPHSSPRP | -0.0864 |
| RRIRPRPPRLPRPRPRPNVAPRP | -0.215 |
| RRIRGRPPRLPRPRPRPRCLPRP | 0.706 |
| RRIRVRPPRLPRPRPRPTRSPRP | 0.17 |
| RRIRFRPPRLPRPRPRPYGVPRP | -0.00783 |
| RRIRNRPPRLPRPRPRPDNHPRP | -0.0531 |
| RRIRQRPPRLPRPRPRPDAPPRP | 0.655 |
| RRIRARPPRLPRPRPRPNCRPRP | 0.0806 |
| RRIRTRPPRLPRPRPRPRRIPRP | -0.16 |
| RRIRIRPPRLPRPRPRPTLGPRP | -0.139 |
| RRIRWRPPRLPRPRPRPAWPPRP | 0.558 |
